Results on eight substances are retold here after article PMC11329502.

pKd: −log10 of the molar value.

One assay has as its target Recombinant mouse nidogen-2 protein (mouse) (UniProt O88322).
Chain of UniProt O88322 (O88322 31-1403): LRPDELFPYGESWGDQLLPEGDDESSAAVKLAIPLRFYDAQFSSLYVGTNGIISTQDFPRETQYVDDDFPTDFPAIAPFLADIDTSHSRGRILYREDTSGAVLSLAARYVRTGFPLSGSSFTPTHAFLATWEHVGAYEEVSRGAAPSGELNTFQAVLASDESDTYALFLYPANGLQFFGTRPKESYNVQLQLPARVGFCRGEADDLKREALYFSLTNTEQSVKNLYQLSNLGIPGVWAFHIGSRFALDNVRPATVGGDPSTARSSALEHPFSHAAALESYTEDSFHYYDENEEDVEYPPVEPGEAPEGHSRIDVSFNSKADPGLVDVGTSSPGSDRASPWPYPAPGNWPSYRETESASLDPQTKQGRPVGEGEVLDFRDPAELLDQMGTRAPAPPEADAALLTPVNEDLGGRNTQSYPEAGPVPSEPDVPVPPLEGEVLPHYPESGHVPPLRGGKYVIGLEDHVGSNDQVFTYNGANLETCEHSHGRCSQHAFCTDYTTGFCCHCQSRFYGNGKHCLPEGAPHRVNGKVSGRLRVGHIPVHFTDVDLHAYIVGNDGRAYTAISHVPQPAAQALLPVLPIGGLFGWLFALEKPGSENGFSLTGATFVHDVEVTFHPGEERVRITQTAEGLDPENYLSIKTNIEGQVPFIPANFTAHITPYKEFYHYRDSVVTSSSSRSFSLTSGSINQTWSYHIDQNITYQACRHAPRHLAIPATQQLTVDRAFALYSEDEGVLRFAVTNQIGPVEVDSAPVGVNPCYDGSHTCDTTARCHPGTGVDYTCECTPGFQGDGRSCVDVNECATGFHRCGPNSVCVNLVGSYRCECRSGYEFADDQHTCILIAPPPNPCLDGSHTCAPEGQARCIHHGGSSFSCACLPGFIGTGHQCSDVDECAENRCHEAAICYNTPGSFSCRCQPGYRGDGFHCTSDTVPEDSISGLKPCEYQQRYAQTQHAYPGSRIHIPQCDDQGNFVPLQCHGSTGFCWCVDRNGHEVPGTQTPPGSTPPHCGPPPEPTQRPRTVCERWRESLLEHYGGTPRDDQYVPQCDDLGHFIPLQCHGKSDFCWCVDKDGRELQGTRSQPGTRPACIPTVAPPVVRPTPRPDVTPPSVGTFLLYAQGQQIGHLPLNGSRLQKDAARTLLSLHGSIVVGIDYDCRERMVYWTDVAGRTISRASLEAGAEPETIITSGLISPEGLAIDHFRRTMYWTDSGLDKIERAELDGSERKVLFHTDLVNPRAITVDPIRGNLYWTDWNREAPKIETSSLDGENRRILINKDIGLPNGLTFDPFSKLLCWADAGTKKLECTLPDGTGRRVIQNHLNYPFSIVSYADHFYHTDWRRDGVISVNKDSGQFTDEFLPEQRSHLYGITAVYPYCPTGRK
Assay: not given
Consider “LAR FNIII4-FLAG (6×His-LAR FNIII4-FLAG) (domain or fragment)”, for which the uptake of HCT-555 in mouse motor neurons pre-incubated with 20 μM of the domain, against buffer; pair to be blocked: nidogen and endogenous LAR is 30%; the uptake of nidogen-2 in axons of mouse motor neurons pre-incubated with 20 μM of the domain, against buffer; pair to be blocked: nidogen and endogenous LAR is 25%.
The corresponding values for “LAR FNIII7-FLAG (6×His-LAR FNIII7-FLAG) (domain or fragment)” are 30% and 25%.
The corresponding values for “LAR FNIII2-FLAG (6×His-LAR FNIII2-FLAG) (domain or fragment)” are 30% and 25%.

A further assay has the same target. The experiment in a line: ELISA. A general note: An ELISA detects its analyte on a solid surface through an enzyme-linked reagent.
Turning to “LAR FNIII4-FLAG (6×His-LAR FNIII4-FLAG) (domain or fragment)”, the pKd was 5.72.
Regarding “LAR FNIII7-FLAG (6×His-LAR FNIII7-FLAG) (domain or fragment)”, the negative logarithm of the Kd (pKd) was 5.60.
Same read-out and setting: the value for “PTPRδ FNIII5-7-FLAG (domain or fragment)” was 5.00; that for LAR FNIII5-7-FLAG (domain or fragment) was 5.17.
The same measure, in the same setting: the value for PTPRδ Ig1-3-His (domain or fragment) was 5.70; that for “LAR FNIII2-FLAG (6×His-LAR FNIII2-FLAG) (domain or fragment)” was 5.70.
On the same count and under the same terms, with “LAR FNIII5-FLAG (6×His-LAR FNIII5-FLAG) (domain or fragment)” the figure was 5.85.
Take LAR FNIII1-4-FLAG (domain or fragment): the negative logarithm of the Kd (pKd) was 5.25.

A word on the pKd: it is the Kd on a negative log10 scale, so that one unit is a factor of ten.
